Experimental data: paper PMC10530651, “Mechanisms of Regulation of the CHRDL1 Gene by the TWIST2 and ADD1/SREBP1c Transcription Factors”

T1: TWIST2 Q119X (Homo sapiens, UniProt Q8WVJ9 1-118)
T1 sequence: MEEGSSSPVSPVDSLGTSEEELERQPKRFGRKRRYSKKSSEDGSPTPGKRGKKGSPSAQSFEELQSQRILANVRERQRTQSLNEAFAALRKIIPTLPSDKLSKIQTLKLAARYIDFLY

B1: CH2600TWI (dsDNA)
DNA 1: TATATACACAGGCAAATGAGTGCATATAAA
DNA 2: TTTATATGCACTCATTTGCCTGTGTATATA
B2: CH2700EA (dsDNA)
DNA 1: TGGTGGTGGTCACATGAATATACACATGCGATAAAATT
DNA 2: AATTTTATCGCATGTGTATATTCATGTGACCACCACCA

Columns and labels:
TWIST2 Q119X [1] = biological target: T1, TWIST2 Q119X; test: EMSA; EMSA: 20 mM HEPES pH 7.9, 60 mM KCl, 1 mM MgCl2, 0.5 mM DTT, 10% glycerol, 10 µL with 1-3 µL TnT lysate; competitor at least 50x molar excess; 6% native gel, 0.5X TBE, 4 °C; binding temperature not stated; conditions: protein: ivt; tags: Myc; chain copies: 2; label: 32P as probe; blunt
TWIST2 Q119X [2] = biological target: T1, TWIST2 Q119X; test: EMSA; homodimer; EMSA: 20 mM HEPES pH 7.9, 60 mM KCl, 1 mM MgCl2, 0.5 mM DTT, 10% glycerol, 10 µL with 1-3 µL TnT lysate; competitor at least 50x molar excess; 6% native gel, 0.5X TBE, 4 °C; binding temperature not stated; conditions: protein: ivt; tags: Myc; chain copies: 2; label: 32P as probe; blunt

Row | Binder | binding result (TWIST2 Q119X [1]) | binding result (TWIST2 Q119X [2])
1 | B1 | no binding | –
2 | B2 | – | no binding
